Results from a protein production outcome set (Wang et al. 2014).

test: label from the status in PepcDB records

Sequence	protein production
MSLSVMFDPQSYPYPSRRNVVYAKNGMVATSQPLAAQAGLDILKAGGNAIDAAIATATALTVLEPTSNGIGSDAFALVWTKGKLHGLNGSGRAPMSLTMEAVKAKGYEQELPPYGVIPVTVPGAPGAWAELAKMYGNLPLAASLAPAIRYAEEGYPVTPTLAKYWKAAYDRFKTEWTDDVYQPWFDTFAPKGRAPRVGEVWRSQGHADTLRSIAESNGESFYRGELADQIHAFFDKHGGYLTKEDLACYRPEWVEPISIDYRGYRVWEIPPNGQGLVALEALNIVKGFEFYHKDTVDTYHKQIEAMKLAFVDGMKYVTEPSDMSVSVEQLLSDEYATERRKEIGEQALTPEPGTPPRGGTVYLATADGDGNMVSFIQSNYMGFGSGVVVPGTGIAMQNRGHNFSLDPNHDNALKPGKRTYHTIIPGFLTKNDQPIGPFGVMGGFMQPQGHMQVMMNTIDFGLNPQAALDAPRWQWTNGKQVQVEPTFPVDIAQALVRRGHKIQVVLDEGAFGRGQIIWRDPTTGVLAGGTEPRTDGQVAAWEGHHHHHH	not failed
MSLTEPRIVATYHIASDAERIEQRALALAIEQSVECPLEAIGDPAIVANIVGRVEDVAELQPGRYAVRIGLAAATAPAEPGQLLNMLFGNSSIQPDIALADVELPAHYLTAFGGPRVGLAGIRTLTGAQSRALTASALKPQGLSPAALASIAHQLALGGVDLIKDDHGLADQAFSPFAERAAAVGKAVREANAARGGRTLYAPNISGTLDDMRRQLGVIRDEGIGAVLVAPMIVGVSNFHAIVKEAAGLVVVAHPAMAGAAKIAAPLLLGRLFRLFGADATVFPNYGGRFAYSTASCLALAQAARDPFGKLNACIPTPAGGIMLQRVNELLRFYGQDVMLLIGGSLLASRERLTEQASRFVNKVADYGQREGHHHHHH	not failed
MSLTEYVHGYSEREALRLSEQAETLEKLLHHDTVYPPGAKVLEAGCGIGAQTVILAKNNPDAEITSIDISPESLEKARENTEKNGIKNVKFLQANIFSLPFEDSSFDHIFVCFVLEHLQSPEEALKSLKKVLKPGGTITVIEGDHGSCYFHPEGKKAIEAWNCLIRVQAYMKGNSLVGRQIYPLLQESGFEKIRVEPRMVYIDSSKPELVDGFILKTIIPMVEGVKEQSLKMQIIKEEEWEKGIEELHKTAEHGGTFCYTFFKGWGTKEGHHHHHH	not failed
MSLTIKLIAIDIDGTLLNEKNELAQETIDAVQAAKAQGIKVVLCTGRPLTGVQPYLDAMGISGDDQYAITFNGSVAQTISGKVLTNHSLTYEDYIDLEAWARKVRAHFQIETPDYIYTANKDISAYTIAESYLVRMLIRYREVSETPRDLTISKAMFVDYPQVIEQVKANMPQDFKDRFSVVQSAPYFIEVMNRRASKGGTLSELVDQLGLTADDVMTLGDQGNDLTMIKYAGLGVAMGNAIDEVKEAAQAVTLTNAENGVAAAIRKYALNEGHHHHHH	not failed
MSLTMVSEVQPVSPASLDAPLENAVEIIETVISSLHQGDAPLVGQTDSGKIWMFRYGSAEVFVQLSGHTEEDFLTIWSPVLPLPVADELALYRKLLTLNWLTTFEAHFAIAEEQVQVVASRTLGGITAGEISRLITIVATLADDYDDALRAEFKGEGHHHHHH	not failed
MSLTNHHPSSTGPQHPYRAGWIHFTNVAPILDSLELPPGVTAITGVPTQMNAALLSGEVDIANVSAVEFIRHADTLAALPDFSVAVLGPVYSVNLFHTCPLPELRRVALTSQSAMSVALLEVLLRQKGLSPVLERAEGTAESLLAAGYDGVLRIGDDALREWYGVVGPLTPERTMTSLPHTGRGITVTDLAQEWFDLTGHPFTFAVWAYRKDNPPPAALLQAMREARRRGIGHLAEVSQRHAEKLGLPERVVQHYLWNFRYHLEAPDRLGLREFADLAVPGHAELTFGAREEAEGHHHHHH	not failed
MSLTRDAASITPARVRAHVFRYPVSTPVKTSFGTMHDRPAVLVEVEDSDGAVGWGEVWCNFPACGAEHRARLVETVLAPLLTARAFADPAQAFAHLEARTAVLAIQTGEPGPLAQAIAGLDIALCDLAARRAGQPLWAWLGGSGDRIGVYASGINPENPEDVVARKAAEGYRAFKLKVGFDDARDVRNALHVRELLGAATPLMADANQGWDLPRARQMAQRLGPAQLDWLEEPLRADRPAAEWAELAQAAPMPLAGGENIAGVAAFETALAARSLRVMQPDLAKWGGFSGCLPVARAVVAAGLRYCPHYLGAGIGLQASAHLLAAVPGLASPGLLEVDANDNPLRSLLSPALATLHEGRITLGGAPGLGVTPDLAALRAACAAREGHHHHHH	not failed
MSLTTPTMIAAVVEEANGPFVLRKLARPQPAPGQVLVQIEASGTNPLDAKIRAGEAPHAQQPLPAILGMDLAGTVVAVGPEVDSFRVGDAVFGLTGGVGGLQGTHAQFAAVDARLLASKPAALTMRQASVLPLVFITAWEGLVDRAQVQDGQTVLIQGGGGGVGHVAIQIALARGARVFATARGSDLEYVRDLGATPIDASREPEDYAAEHTAGQGFDLVYDTLGGPVLDASFSAVKRFGHVVSCLGWGTHKLAPLSFKQATYSGVFTLHTLLANEGLAHFGEMLREADALVQTGKLAPRLDPRTFSIAEIGSAYDAVLGRNDVPRQRGKIAITVEGHHHHHH	not failed
MSLTTVGIRGTFFDFVDDPWKHIGNEQAAARFHQDGLMVVTDGVIKAFGPYEKIAAAHPGVEITHIKDRIIVPGFIDGHIHLPQTRVLGAYGEQLLPWLQKSIYPEEIKYKDRNYAREGVKRFLDALLAAGTTTCQAFTSSSPVATEELFEEASRRNMRVIAGLTGIDRNAPAEFIDTPENFYRDSKRLIAQYHDKGRNLYAITPRFAFGASPELLKACQRLKHEHPDCWVNTHISENPAECSGVLVEHPDCQDYLGVYEKFDLVGPKFSGGHGVYLSNNEFRRMSKKGAAVVFCPCSNLFLGSGLFRLGRATDPEHRVKMSFGTDVGGGNRFSMISVLDDAYKVGMCNNTLLDGSIDPSRKDLAEAERNKLSPYRGFWSVTLGGAEGLYIDDKLGNFEPGKEADFVALDPNGGQLAQPWHQSLIADGAGPRTVDEAASMLFAVMMVGDDRCVDETWVMGKRLYKKSEGHHHHHH	not failed
MSMKGKETMSNEKIVVGKFGATYGIRGWLKVFSYTDNAESIFDYSPWYINQKGKWVEYKVESWKRHNKGMVAKLEGMDVREDAHLMTNFEIAIDPAVLPELSEDEFYWRELFGMHVVTTKGYDLGVVTDMLETGSNDVLVVKANLKDAFGQKERLIPFLEEQVIIKVDREAQRIEVDWDPGFLEHHHHHH	not failed
MSMKILKASVFVIIVFFLMPLPVVAAKKGIYCGELKGSHYGPFDYMDRFNHSEQLKIVEDFHFTSDVEDLIRGSTSSTPAKDLNYTLHAWPNHHRALVSLFKYSIKEKSTRIKGLKYPVECYFDRAIRMNMKDVQVRSIYSAFLSHRGRNKEALEQLEVAANLEPDNATILYNLGLLYFKQKNYEKASHYAEKAYALDYPLPGLRNKLIQAGKWRGSASGRSGK	failed
MSMTKSEVCVIIAAKNAARTIAVAIASALREPEAAEVVVVDDGSTDNTAEVARSADDGSGRLKVMRLDVNRGPSFARNAAIAGSKAPFISILDADDFFLEGRFRNLFAAADWDFAADNIMLIRDDATNDATKIVAPDFAADPEFLDFERFVEGNISRRRVQRGELGFLKPVISRAFLDRHRLRYDESLRLGEDYELYARAVAHGARFKVIRSCGYGAIVRADSLSGRHKTQDLKRLADADLALLAIDSLPEGSKAVLRRHERHVRDKYRLRNFLDVKAERGLASAAAYAFASQSNLVPIVQGVASDKLEALFRRVGLVSRQKRVPPLRFLMAGTSAGKER	failed
MSNALKSIDFRTNKSKDAVIVVELASPAAIVDVKRVQEGLSIDLMNTSVKDEQLYLLDVKDFATVVESVEVFRDTSTTRLVAYIDEEYTHDYRLTGRYLEITVSKLKPNEKVPDKSILEKEGKLISINFQDIPVRNVLQLIADYNQFNLVVSDSVEGNLTLRLDGVPWQQVLDIILQVKGLDKRVDGNVILVAPTDELDLREKQQLEKQKLTEEMGELSSEIIKVNFAKASDIAEMINGEGNISMLSERGSMTIDERTNSLLIRELPENIAVIREIIESLDIPVKQVQIEARIVTISEGNMDELGIRWGFTSINGNNTVGGSIENNLATIGLYEGGGDGEGEEGGVGIDDFLNVNLAATNPNAASIAFQVAKLGSDTLLDLELSALQQESKAEIISSPRLITTNKKPAYIEQGTEIPYLESSSSGATSVTFKKAVLSLKVTPQITPDNRLVLDLSVTQDRPGKVVKTGTGEAMAIDTQRIGTQVLVNNGETVVLGGIFQHSITNSVDKVPLLGDLPLLGALFRRSYENVGKSELLIFVTPKVVIQLEHHHHHH	not failed
MSNANPDTTAAEAHRRRTFAVIAHPDAGKSTLTEALALHAHIISEAGATHGKAGRKATVSDWMEMEKDRGISIASSALQFEYAPEGHAGEPFMINLVDTPGHADFSEDTYRVLMAVDAAVMLIDAAKGLEPQTLQLFRVCKARGLPIITVINKWDRVGRTPLELVDEIVKEIELQPTPLFWPVGEAGDFRGLARINNDGEVEEYIHFTRTAGGSTIAPEDFYTPEEAIEREGDVWENATEEAELLAADGAVHDQELFLNCTTSPLIFASAMLNFGVHQILDTLCQLAPSPAGRDADPKALEAATSAMDDHRDTTDDFSGVVFKVQAGMDKNHRDTLAFMRVVSGEFDRGMQVTHSQSGRSFSTKYALTVFGRTRSTVETAFPGDIVGLVNAGALAPGDTIFEGRKIQYPPMPKFAPEHFRILRAKSLGKYKQFRKALEQLDSEGVVQILKNDLRGDANPVMAAVGPMQFEVMQARMEVEYNVETVADPIPYSVARRTTAETAPELAKQRGVEIFTRTDGELIALFSDKWRLSFIEKEHPDFVLESLVAE	failed
MSNARIGIDMSKIYAPKSIDLSSFQLPDEKLQTKYGLPHKVEFCKSCVISNQRPNSAVEYEHKKESKKHTIHFDDEGICDACRVAERKKSTINWEERDRQLRELCDRFRSKDGSYDCVVPGSGGKDSFYAAHILKYKYGMNPLTVTWAPHMYTPWGWRNFQSWIHAGFDNHLFTPNGRVHRLLTRLAVENLFHPFQPFMIGQKAYAPKMALLHKIKLVVYGENEAEYGNPIGDTESAKRDWKYFTADDKSKIFLGGTSVQELKSDFGLNDNDLDAYLPADPQQIEEQQVEVHYLGYYLKWHPQSCYYYSVEHGGFEASPERTPGTYSKYNSIDDKIDDFHYYTTLTKFGIGRATYDASQEIRSGDITVEEGVALVKRFDQEFPERFAEEIFKYLSINLKEFPIASQMFEQPIMDRAYFMALADTFRSPHLWKKDGEQWKLRHQVTNLEKTKAEYLDLETV	not failed
MSNEHQLLVGLLKKLKDDALILPTLPEVAMRVQEVVGRPDSSLKQVAEIIGQDAAISARIIKVANSALYSRGVPAENINSAVTRIGLTQIKSIATSVAMEQLFISTNEMVWEVMDEVWRTSIDVTAAACSLLQIYNKKHPGSGLNYDTLTLAGLVHNIGALPVLTEAEAHPEMFTTIEHLRSLVRKMQGPIGRAVLKSWDFAPEVMEVVERWADLPYLGDHVSYLDFIRAAAFYTGELRAGNELEQRLDVFVKRGLPVSPEDLGSDAFLDSYHSIKASYE	not failed
MSNIFLSLEPKILWSHFYRLTQIPRPSGHEEAVRTYVADVAKRCGLEWLVDEAGNIIVRKPASAGMERRRGVILQAHLDMVPQKNAGTAHDFTKDPIDAVIDGEWVHARGTTLGADNGIGVAAALAVLESDDLRHGPLEALFTVNEEAGMTGALGLKPGVLRGDILLNLDSEDEGELFIGCAGGLDGTMRFDYSCEPLPPGYSGIEIRVSGLRGGHSGMDIDLGRGNANKIMNRLLQMGREHHGLLLASIDGGSLRNAIPRESVALVAVPSAQKVAFLDELHSLASAIGLELNGVDPELRVEAADAALPVGMIDDTVAQRLFDAVAACPNGVHRMSEAMAGLVETSNNLARVHSDGRAVSVECLLRSASVEGMRELADAVAGIAERAGTVAAFENGYPGWKPNPASPILKCMVKVYRDRFGKTPEIRAVHAGLECGIIGANNPQLDMISFGPTIRHPHSPDEKVECSSVLKFWELLVATLEEVPEPLEHHHHHH	failed
